In article PMC9352680, “A comprehensive thermodynamic model for RNA binding by the Saccharomyces cerevisiae Pumilio protein PUF4”:

Biological target: T1, PUF4 RNA-binding domain (Saccharomyces cerevisiae, UniProt P25339 537-888)
T1 sequence: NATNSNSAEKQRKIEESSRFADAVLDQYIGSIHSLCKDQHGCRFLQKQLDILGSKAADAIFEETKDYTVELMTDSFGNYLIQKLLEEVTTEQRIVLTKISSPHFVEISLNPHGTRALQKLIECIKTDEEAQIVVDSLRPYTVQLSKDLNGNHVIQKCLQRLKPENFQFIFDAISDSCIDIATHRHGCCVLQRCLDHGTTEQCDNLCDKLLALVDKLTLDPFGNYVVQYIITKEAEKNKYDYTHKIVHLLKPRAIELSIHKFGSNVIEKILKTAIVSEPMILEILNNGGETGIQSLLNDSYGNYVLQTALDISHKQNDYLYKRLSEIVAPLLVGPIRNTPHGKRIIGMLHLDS
Assay: Mg; RNA-MaP; 20 mM Na-HEPES pH 7.4, 30 mM KOAc, 0.75 mM MgCl2, 0.1% Tween-20, 5% glycerol, 0.1 mg/mL BSA, 2 mM DTT; 25 C; 0.0125-409.6 nM protein
Conditions: tags: N-His6-TEV cleaved; C-SNAP kept, Cy3B-labelled; label: tethered on chip by stalled RNA polymerase

| Binder | Kd |
| --- | --- |
| Ia_S4_P4E.1_K4.1_C4.1_H4.1_A4.1_F4.1_[A9G]_T4.1 (ssRNA) RNA: UUUGACAACUGAUCGUUCUUUCUUGUAUAUUGUUCUUUCUCGAUCAGUUGUCUUU | 3.07 nM |
| Ib_S4_P4E.1_K4.1_C4.1_H4.1_A4.1_[A6C]_[T7A]_F4.1_T4.1 (ssRNA) RNA: UUUGACAACUGAUCGUUCUUUCUUGUAUCAUAUUCUUUCUCGAUCAGUUGUCUUU | 0.977 nM |
| Ia_S4_P4E.1_K4.1_C4.1_H4.1_[G2A]_A4.1_F4.1_T4.1 (ssRNA) RNA: UUUGACAACUGAUCGUUCUUUCUUAUAUAUUAUUCUUUCUCGAUCAGUUGUCUUU | 10.3 nM |
| Ib_S4_P4E.1_K4.1_C4.1_H4.1_[A4C]_A4.1_[A6G]_F4.1_T4.1 (ssRNA) RNA: UUUGACAACUGAUCGUUCUUUCUUGUCUGUUAUUCUUUCUCGAUCAGUUGUCUUU | 191 nM |
| Ia_S4_P4E.1_K4.1_C4.1_H4.1_[G2T]_A4.1_F4.1_T4.1 (ssRNA) RNA: UUUGACAACUGAUCGUUCUUUCUUUUAUAUUAUUCUUUCUCGAUCAGUUGUCUUU | 253 nM |
| Ib_S4_P4E.1_K4.1_C4.1_H4.1_[A4T]_A4.1_[T7C]_F4.1_T4.1 (ssRNA) RNA: UUUGACAACUGAUCGUUCUUUCUUGUUUACUAUUCUUUCUCGAUCAGUUGUCUUU | 7.04 nM |
| Ib_S4_P4E.1_K4.1_C4.1_H4.1_A4.1_[T5G]_[A6C]_F4.1_T4.1 (ssRNA) RNA: UUUGACAACUGAUCGUUCUUUCUUGUAGCUUAUUCUUUCUCGAUCAGUUGUCUUU | 4.82 nM |
| Ia_S4_P4E.1_K4.1_C4.1_H4.1_[T3C]_A4.1_F4.1_T4.1 (ssRNA) RNA: UUUGACAACUGAUCGUUCUUUCUUGCAUAUUAUUCUUUCUCGAUCAGUUGUCUUU | 21 nM |
| Ib_S4_P4E.1_K4.1_C4.1_H4.1_A4.1_[T5G]_[A6T]_F4.1_T4.1 (ssRNA) RNA: UUUGACAACUGAUCGUUCUUUCUUGUAGUUUAUUCUUUCUCGAUCAGUUGUCUUU | 5.58 nM |
| Ib_S4_P4E.1_K4.1_C4.1_H4.1_[A4C]_A4.1_[T7C]_F4.1_T4.1 (ssRNA) RNA: UUUGACAACUGAUCGUUCUUUCUUGUCUACUAUUCUUUCUCGAUCAGUUGUCUUU | 12.9 nM |
| Ib_S4_P4E.1_K4.1_C4.1_H4.1_[A4T]_A4.1_[A6G]_F4.1_T4.1 (ssRNA) RNA: UUUGACAACUGAUCGUUCUUUCUUGUUUGUUAUUCUUUCUCGAUCAGUUGUCUUU | 64.1 nM |
| Ib_S4_P4E.1_K4.1_C4.1_H4.1_A4.1_[T5C]_[A6T]_F4.1_T4.1 (ssRNA) RNA: UUUGACAACUGAUCGUUCUUUCUUGUACUUUAUUCUUUCUCGAUCAGUUGUCUUU | 1.04 nM |
| Ic_S4_P4E.1_K4.1_C4.1_H4.1_A4.1_[T5C]_[T7G]_F4.1_T4.1 (ssRNA) RNA: UUUGACAACUGAUCGUUCUUUCUUGUACAGUAUUCUUUCUCGAUCAGUUGUCUUU | 1.45 nM |
| Ib_S4_P4E.1_K4.1_C4.1_H4.1_A4.1_[A6T]_[T7A]_F4.1_T4.1 (ssRNA) RNA: UUUGACAACUGAUCGUUCUUUCUUGUAUUAUAUUCUUUCUCGAUCAGUUGUCUUU | 1.36 nM |
| Ib_S4_P4E.1_K4.1_C4.1_H4.1_A4.1_[A6C]_[T7C]_F4.1_T4.1 (ssRNA) RNA: UUUGACAACUGAUCGUUCUUUCUUGUAUCCUAUUCUUUCUCGAUCAGUUGUCUUU | 3.08 nM |
| Ib_S4_P4E.1_K4.1_C4.1_H4.1_[A4T]_A4.1_[A6C]_F4.1_T4.1 (ssRNA) RNA: UUUGACAACUGAUCGUUCUUUCUUGUUUCUUAUUCUUUCUCGAUCAGUUGUCUUU | 54.8 nM |
| Ia_S4_P4E.1_K4.1_C4.1_H4.1_[G2C]_A4.1_F4.1_T4.1 (ssRNA) RNA: UUUGACAACUGAUCGUUCUUUCUUCUAUAUUAUUCUUUCUCGAUCAGUUGUCUUU | 227 nM |
| Ib_S4_P4E.1_K4.1_C4.1_H4.1_[A4C]_A4.1_[A6T]_F4.1_T4.1 (ssRNA) RNA: UUUGACAACUGAUCGUUCUUUCUUGUCUUUUAUUCUUUCUCGAUCAGUUGUCUUU | 29.8 nM |
| Ib_S4_P4E.1_K4.1_C4.1_H4.1_A4.1_[A6C]_[T7G]_F4.1_T4.1 (ssRNA) RNA: UUUGACAACUGAUCGUUCUUUCUUGUAUCGUAUUCUUUCUCGAUCAGUUGUCUUU | 14.5 nM |
| Ic_S4_P4E.1_K4.1_C4.1_H4.1_A4.1_[A6T]_[T7C]_F4.1_T4.1 (ssRNA) RNA: UUUGACAACUGAUCGUUCUUUCUUGUAUUCUAUUCUUUCUCGAUCAGUUGUCUUU | 2.33 nM |
| Ic_S4_P4E.1_K4.1_C4.1_H4.1_A4.1_[T5C]_[T7A]_F4.1_T4.1 (ssRNA) RNA: UUUGACAACUGAUCGUUCUUUCUUGUACAAUAUUCUUUCUCGAUCAGUUGUCUUU | 0.996 nM |
| Ib_S4_P4E.1_K4.1_C4.1_H4.1_A4.1_[A6T]_[T7G]_F4.1_T4.1 (ssRNA) RNA: UUUGACAACUGAUCGUUCUUUCUUGUAUUGUAUUCUUUCUCGAUCAGUUGUCUUU | 5.79 nM |
| Ib_S4_P4E.1_K4.1_C4.1_H4.1_[A4C]_A4.1_[A6C]_F4.1_T4.1 (ssRNA) RNA: UUUGACAACUGAUCGUUCUUUCUUGUCUCUUAUUCUUUCUCGAUCAGUUGUCUUU | 110 nM |

| Binder | Kd |
| --- | --- |
| Ib_S4_P4E.1_K4.1_C4.1_H4.1_[A4C]_A4.1_[T7A]_F4.1_T4.1 (ssRNA) RNA: UUUGACAACUGAUCGUUCUUUCUUGUCUAAUAUUCUUUCUCGAUCAGUUGUCUUU | 19 nM |
| Ib_S4_P4E.1_K4.1_C4.1_H4.1_[A4T]_A4.1_[T7G]_F4.1_T4.1 (ssRNA) RNA: UUUGACAACUGAUCGUUCUUUCUUGUUUAGUAUUCUUUCUCGAUCAGUUGUCUUU | 30.9 nM |
| Ib_S4_P4E.1_K4.1_C4.1_H4.1_A4.1_[T5A]_[T7C]_F4.1_T4.1 (ssRNA) RNA: UUUGACAACUGAUCGUUCUUUCUUGUAAACUAUUCUUUCUCGAUCAGUUGUCUUU | 2.55 nM |
| Ib_S4_P5E.1_K5.1_C5.1_H5.1_A5.1_F5.1_[T8G]_[A10G]_T5.1 (ssRNA) RNA: UUUGACAACUGAUCGUUCUUUCUUGUAUUAGUGUUCUUUCUCGAUCAGUUGUCUUU | 488 nM |
| Ib_S4_P5E.1_K5.1_C5.1_H5.1_[G2A]_A5.1_F5.1_[T8A]_T5.1 (ssRNA) RNA: UUUGACAACUGAUCGUUCUUUCUUAUAUUAAUAUUCUUUCUCGAUCAGUUGUCUUU | 598 nM |
| Ib_S4_P5E.1_K5.1_C5.1_H5.1_[A4C]_A5.1_F5.1_[T8C]_T5.1 (ssRNA) RNA: UUUGACAACUGAUCGUUCUUUCUUGUCUUACUAUUCUUUCUCGAUCAGUUGUCUUU | 35.7 nM |
| Ib_S4_P5E.1_K5.1_C5.1_H5.1_A5.1_F5.1_[T8A]_[A10G]_T5.1 (ssRNA) RNA: UUUGACAACUGAUCGUUCUUUCUUGUAUUAAUGUUCUUUCUCGAUCAGUUGUCUUU | 36.4 nM |
| Ib_S4_P5E.1_K5.1_C5.1_H5.1_[G2A]_A5.1_F5.1_[T8G]_T5.1 (ssRNA) RNA: UUUGACAACUGAUCGUUCUUUCUUAUAUUAGUAUUCUUUCUCGAUCAGUUGUCUUU | 628 nM |
| Ib_S4_P5E.1_K5.1_C5.1_H5.1_[T3C]_A5.1_F5.1_[T8A]_T5.1 (ssRNA) RNA: UUUGACAACUGAUCGUUCUUUCUUGCAUUAAUAUUCUUUCUCGAUCAGUUGUCUUU | 1010 nM |
| Ic_S4_P5E.1_K5.1_C5.1_H5.1_A5.1_F5.1_[T9A]_[A10C]_T5.1 (ssRNA) RNA: UUUGACAACUGAUCGUUCUUUCUUGUAUUAUACUUCUUUCUCGAUCAGUUGUCUUU | 7.38 nM |
| Ib_S4_P5E.1_K5.1_C5.1_H5.1_[T1C]_A5.1_F5.1_[T8A]_T5.1 (ssRNA) RNA: UUUGACAACUGAUCGUUCUUUCUCGUAUUAAUAUUCUUUCUCGAUCAGUUGUCUUU | 964 nM |
| Ib_S4_P5E.1_K5.1_C5.1_H5.1_[A4G]_A5.1_F5.1_[T8C]_T5.1 (ssRNA) RNA: UUUGACAACUGAUCGUUCUUUCUUGUGUUACUAUUCUUUCUCGAUCAGUUGUCUUU | 28.4 nM |
| Ib_S4_P5E.1_K5.1_C5.1_H5.1_[A4T]_A5.1_F5.1_[T8G]_T5.1 (ssRNA) RNA: UUUGACAACUGAUCGUUCUUUCUUGUUUUAGUAUUCUUUCUCGAUCAGUUGUCUUU | 107 nM |
| Ib_S4_P5E.1_K5.1_C5.1_H5.1_A5.1_F5.1_[T9A]_[A10T]_T5.1 (ssRNA) RNA: UUUGACAACUGAUCGUUCUUUCUUGUAUUAUAUUUCUUUCUCGAUCAGUUGUCUUU | 1.18 nM |
| Ib_S4_P5E.1_K5.1_C5.1_H5.1_A5.1_F5.1_[T9G]_[A10C]_T5.1 (ssRNA) RNA: UUUGACAACUGAUCGUUCUUUCUUGUAUUAUGCUUCUUUCUCGAUCAGUUGUCUUU | 37 nM |
| Ib_S4_P5E.1_K5.1_C5.1_H5.1_[T1C]_A5.1_F5.1_[T8C]_T5.1 (ssRNA) RNA: UUUGACAACUGAUCGUUCUUUCUCGUAUUACUAUUCUUUCUCGAUCAGUUGUCUUU | 688 nM |
| Ib_S4_P5E.1_K5.1_C5.1_H5.1_[T3C]_A5.1_F5.1_[T8C]_T5.1 (ssRNA) RNA: UUUGACAACUGAUCGUUCUUUCUUGCAUUACUAUUCUUUCUCGAUCAGUUGUCUUU | 478 nM |
| Ib_S4_P5E.1_K5.1_C5.1_H5.1_[A4C]_A5.1_F5.1_[T8A]_T5.1 (ssRNA) RNA: UUUGACAACUGAUCGUUCUUUCUUGUCUUAAUAUUCUUUCUCGAUCAGUUGUCUUU | 26.8 nM |
| Ib_S4_P5E.1_K5.1_C5.1_H5.1_[T1G]_A5.1_F5.1_[T9A]_T5.1 (ssRNA) RNA: UUUGACAACUGAUCGUUCUUUCUGGUAUUAUAAUUCUUUCUCGAUCAGUUGUCUUU | 1300 nM |
| Ib_S4_P5E.1_K5.1_C5.1_H5.1_A5.1_F5.1_[T8G]_[A10T]_T5.1 (ssRNA) RNA: UUUGACAACUGAUCGUUCUUUCUUGUAUUAGUUUUCUUUCUCGAUCAGUUGUCUUU | 393 nM |
| Ic_S4_P5E.1_K5.1_C5.1_H5.1_A5.1_F5.1_[T8C]_[A10G]_T5.1 (ssRNA) RNA: UUUGACAACUGAUCGUUCUUUCUUGUAUUACUGUUCUUUCUCGAUCAGUUGUCUUU | 50.3 nM |
| Ib_S4_P5E.1_K5.1_C5.1_H5.1_[G2C]_A5.1_F5.1_[T8C]_T5.1 (ssRNA) RNA: UUUGACAACUGAUCGUUCUUUCUUCUAUUACUAUUCUUUCUCGAUCAGUUGUCUUU | > 2300 nM |
